From patent publication US20110118131A1 (published 2011) come the findings set out here.

The experiment deals with T1, IL-1beta (UniProt P01584 117-269).
T1 construct: also called IL-1β
Briefly: Biacore. (In general: SPR reads the build-up and loss of mass on a sensor chip optically.)

B1: XPA23 Fab, heavy chain S52F (Fab, V domains shown)
VH: EVQLLESGGGLVQPGGSLRLSCAASGFTFSKYFMFWVRQAPGKGLEWVSVIFPSGGMTRYADSVKGRFTISRDNSKNTLYLQMNSLRAEDTAVYYCARVGYGGNSDYWGQGTLVTVSS
VL: DIQMTQSPSSVSASVGDRLTIICRASQDINRWLAWYQQTPGNAPKLLIHSATSLQSGVPSRFSGSGSGTDFTLTINSLQPEDFATYYCQQADSFPLTFGGGTKVEIK
As for B1, the binding result was “no binding”.

B2: XPA23 Fab, heavy chain S52N (Fab, V domains shown)
VH: EVQLLESGGGLVQPGGSLRLSCAASGFTFSKYFMFWVRQAPGKGLEWVSVINPSGGMTRYADSVKGRFTISRDNSKNTLYLQMNSLRAEDTAVYYCARVGYGGNSDYWGQGTLVTVSS
VL: DIQMTQSPSSVSASVGDRLTIICRASQDINRWLAWYQQTPGNAPKLLIHSATSLQSGVPSRFSGSGSGTDFTLTINSLQPEDFATYYCQQADSFPLTFGGGTKVEIK
Turning to B2, the binding result is “no binding”.

B3: XPA23 Fab, heavy chain S54K (Fab, V domains shown)
VH: EVQLLESGGGLVQPGGSLRLSCAASGFTFSKYFMFWVRQAPGKGLEWVSVISPKGGMTRYADSVKGRFTISRDNSKNTLYLQMNSLRAEDTAVYYCARVGYGGNSDYWGQGTLVTVSS
VL: DIQMTQSPSSVSASVGDRLTIICRASQDINRWLAWYQQTPGNAPKLLIHSATSLQSGVPSRFSGSGSGTDFTLTINSLQPEDFATYYCQQADSFPLTFGGGTKVEIK
B3: the “fold difference in affinity vs parental” value worked out at 1.53 fold.

B4: XPA23 Fab, heavy chain S52W (Fab, V domains shown)
VH: EVQLLESGGGLVQPGGSLRLSCAASGFTFSKYFMFWVRQAPGKGLEWVSVIWPSGGMTRYADSVKGRFTISRDNSKNTLYLQMNSLRAEDTAVYYCARVGYGGNSDYWGQGTLVTVSS
VL: DIQMTQSPSSVSASVGDRLTIICRASQDINRWLAWYQQTPGNAPKLLIHSATSLQSGVPSRFSGSGSGTDFTLTINSLQPEDFATYYCQQADSFPLTFGGGTKVEIK
For B4, the binding result is given as “no binding”.

B5: XPA23 Fab, heavy chain S52Y (Fab, V domains shown)
VH: EVQLLESGGGLVQPGGSLRLSCAASGFTFSKYFMFWVRQAPGKGLEWVSVIYPSGGMTRYADSVKGRFTISRDNSKNTLYLQMNSLRAEDTAVYYCARVGYGGNSDYWGQGTLVTVSS
VL: DIQMTQSPSSVSASVGDRLTIICRASQDINRWLAWYQQTPGNAPKLLIHSATSLQSGVPSRFSGSGSGTDFTLTINSLQPEDFATYYCQQADSFPLTFGGGTKVEIK
Take B5: the binding result is listed as “no binding”.

B6: XPA23 Fab, heavy chain S52H (Fab, V domains shown)
VH: EVQLLESGGGLVQPGGSLRLSCAASGFTFSKYFMFWVRQAPGKGLEWVSVIHPSGGMTRYADSVKGRFTISRDNSKNTLYLQMNSLRAEDTAVYYCARVGYGGNSDYWGQGTLVTVSS
VL: DIQMTQSPSSVSASVGDRLTIICRASQDINRWLAWYQQTPGNAPKLLIHSATSLQSGVPSRFSGSGSGTDFTLTINSLQPEDFATYYCQQADSFPLTFGGGTKVEIK
Take B6: the binding result is given as “no binding”.

B7: XPA23 Fab, heavy chain S54Y (Fab, V domains shown)
VH: EVQLLESGGGLVQPGGSLRLSCAASGFTFSKYFMFWVRQAPGKGLEWVSVISPYGGMTRYADSVKGRFTISRDNSKNTLYLQMNSLRAEDTAVYYCARVGYGGNSDYWGQGTLVTVSS
VL: DIQMTQSPSSVSASVGDRLTIICRASQDINRWLAWYQQTPGNAPKLLIHSATSLQSGVPSRFSGSGSGTDFTLTINSLQPEDFATYYCQQADSFPLTFGGGTKVEIK
In the case of B7, the “fold difference in affinity vs parental” value was found to be 0.99 fold.

B8: XPA23 Fab, heavy chain S52K (Fab, V domains shown)
VH: EVQLLESGGGLVQPGGSLRLSCAASGFTFSKYFMFWVRQAPGKGLEWVSVIKPSGGMTRYADSVKGRFTISRDNSKNTLYLQMNSLRAEDTAVYYCARVGYGGNSDYWGQGTLVTVSS
VL: DIQMTQSPSSVSASVGDRLTIICRASQDINRWLAWYQQTPGNAPKLLIHSATSLQSGVPSRFSGSGSGTDFTLTINSLQPEDFATYYCQQADSFPLTFGGGTKVEIK
Consider B8, for which the binding result is recorded as “no binding”.

B9: XPA23 Fab, heavy chain S52R (Fab, V domains shown)
VH: EVQLLESGGGLVQPGGSLRLSCAASGFTFSKYFMFWVRQAPGKGLEWVSVIRPSGGMTRYADSVKGRFTISRDNSKNTLYLQMNSLRAEDTAVYYCARVGYGGNSDYWGQGTLVTVSS
VL: DIQMTQSPSSVSASVGDRLTIICRASQDINRWLAWYQQTPGNAPKLLIHSATSLQSGVPSRFSGSGSGTDFTLTINSLQPEDFATYYCQQADSFPLTFGGGTKVEIK
For the molecule B9, the binding result is given as “no binding”.

B10: XPA23 Fab, heavy chain S105N (Fab, V domains shown)
VH: EVQLLESGGGLVQPGGSLRLSCAASGFTFSKYFMFWVRQAPGKGLEWVSVISPSGGMTRYADSVKGRFTISRDNSKNTLYLQMNSLRAEDTAVYYCARVGYGGNNDYWGQGTLVTVSS
VL: DIQMTQSPSSVSASVGDRLTIICRASQDINRWLAWYQQTPGNAPKLLIHSATSLQSGVPSRFSGSGSGTDFTLTINSLQPEDFATYYCQQADSFPLTFGGGTKVEIK
For the molecule B10, the “fold difference in affinity vs parental” value came to 0.85 fold.

B11: XPA23 Fab, heavy chain S54D (Fab, V domains shown)
VH: EVQLLESGGGLVQPGGSLRLSCAASGFTFSKYFMFWVRQAPGKGLEWVSVISPDGGMTRYADSVKGRFTISRDNSKNTLYLQMNSLRAEDTAVYYCARVGYGGNSDYWGQGTLVTVSS
VL: DIQMTQSPSSVSASVGDRLTIICRASQDINRWLAWYQQTPGNAPKLLIHSATSLQSGVPSRFSGSGSGTDFTLTINSLQPEDFATYYCQQADSFPLTFGGGTKVEIK
With B11, the “fold difference in affinity vs parental” value was 0.12 fold.

B12: XPA23 Fab, heavy chain S54R (Fab, V domains shown)
VH: EVQLLESGGGLVQPGGSLRLSCAASGFTFSKYFMFWVRQAPGKGLEWVSVISPRGGMTRYADSVKGRFTISRDNSKNTLYLQMNSLRAEDTAVYYCARVGYGGNSDYWGQGTLVTVSS
VL: DIQMTQSPSSVSASVGDRLTIICRASQDINRWLAWYQQTPGNAPKLLIHSATSLQSGVPSRFSGSGSGTDFTLTINSLQPEDFATYYCQQADSFPLTFGGGTKVEIK
As to B12, the “fold difference in affinity vs parental” value came to 1.43 fold.

B13: XPA23 Fab, heavy chain S54E (Fab, V domains shown)
VH: EVQLLESGGGLVQPGGSLRLSCAASGFTFSKYFMFWVRQAPGKGLEWVSVISPEGGMTRYADSVKGRFTISRDNSKNTLYLQMNSLRAEDTAVYYCARVGYGGNSDYWGQGTLVTVSS
VL: DIQMTQSPSSVSASVGDRLTIICRASQDINRWLAWYQQTPGNAPKLLIHSATSLQSGVPSRFSGSGSGTDFTLTINSLQPEDFATYYCQQADSFPLTFGGGTKVEIK
Consider B13, for which the “fold difference in affinity vs parental” value is 0.03 fold.

B14: XPA23 Fab, heavy chain S105F (Fab, V domains shown)
VH: EVQLLESGGGLVQPGGSLRLSCAASGFTFSKYFMFWVRQAPGKGLEWVSVISPSGGMTRYADSVKGRFTISRDNSKNTLYLQMNSLRAEDTAVYYCARVGYGGNFDYWGQGTLVTVSS
VL: DIQMTQSPSSVSASVGDRLTIICRASQDINRWLAWYQQTPGNAPKLLIHSATSLQSGVPSRFSGSGSGTDFTLTINSLQPEDFATYYCQQADSFPLTFGGGTKVEIK
B14: the “fold difference in affinity vs parental” value was found to be 1.25 fold.

B15: XPA23 Fab, heavy chain S52Q (Fab, V domains shown)
VH: EVQLLESGGGLVQPGGSLRLSCAASGFTFSKYFMFWVRQAPGKGLEWVSVIQPSGGMTRYADSVKGRFTISRDNSKNTLYLQMNSLRAEDTAVYYCARVGYGGNSDYWGQGTLVTVSS
VL: DIQMTQSPSSVSASVGDRLTIICRASQDINRWLAWYQQTPGNAPKLLIHSATSLQSGVPSRFSGSGSGTDFTLTINSLQPEDFATYYCQQADSFPLTFGGGTKVEIK
Regarding B15, the binding result was “no binding”.

B16: XPA23 Fab, heavy chain S54Q (Fab, V domains shown)
VH: EVQLLESGGGLVQPGGSLRLSCAASGFTFSKYFMFWVRQAPGKGLEWVSVISPQGGMTRYADSVKGRFTISRDNSKNTLYLQMNSLRAEDTAVYYCARVGYGGNSDYWGQGTLVTVSS
VL: DIQMTQSPSSVSASVGDRLTIICRASQDINRWLAWYQQTPGNAPKLLIHSATSLQSGVPSRFSGSGSGTDFTLTINSLQPEDFATYYCQQADSFPLTFGGGTKVEIK
Regarding B16, the “fold difference in affinity vs parental” value is 1.01 fold.

B17: XPA23 Fab, heavy chain S54F (Fab, V domains shown)
VH: EVQLLESGGGLVQPGGSLRLSCAASGFTFSKYFMFWVRQAPGKGLEWVSVISPFGGMTRYADSVKGRFTISRDNSKNTLYLQMNSLRAEDTAVYYCARVGYGGNSDYWGQGTLVTVSS
VL: DIQMTQSPSSVSASVGDRLTIICRASQDINRWLAWYQQTPGNAPKLLIHSATSLQSGVPSRFSGSGSGTDFTLTINSLQPEDFATYYCQQADSFPLTFGGGTKVEIK
On to B17, for which the “fold difference in affinity vs parental” value stood at 0.87 fold.

B18: XPA23 Fab, heavy chain S105H (Fab, V domains shown)
VH: EVQLLESGGGLVQPGGSLRLSCAASGFTFSKYFMFWVRQAPGKGLEWVSVISPSGGMTRYADSVKGRFTISRDNSKNTLYLQMNSLRAEDTAVYYCARVGYGGNHDYWGQGTLVTVSS
VL: DIQMTQSPSSVSASVGDRLTIICRASQDINRWLAWYQQTPGNAPKLLIHSATSLQSGVPSRFSGSGSGTDFTLTINSLQPEDFATYYCQQADSFPLTFGGGTKVEIK
Regarding B18, the “fold difference in affinity vs parental” value was found to be 0.05 fold.

B19: XPA23 Fab, heavy chain S54W (Fab, V domains shown)
VH: EVQLLESGGGLVQPGGSLRLSCAASGFTFSKYFMFWVRQAPGKGLEWVSVISPWGGMTRYADSVKGRFTISRDNSKNTLYLQMNSLRAEDTAVYYCARVGYGGNSDYWGQGTLVTVSS
VL: DIQMTQSPSSVSASVGDRLTIICRASQDINRWLAWYQQTPGNAPKLLIHSATSLQSGVPSRFSGSGSGTDFTLTINSLQPEDFATYYCQQADSFPLTFGGGTKVEIK
For the molecule B19, the “fold difference in affinity vs parental” value came out at 1.07 fold.

B20: XPA23 Fab, heavy chain S105E (Fab, V domains shown)
VH: EVQLLESGGGLVQPGGSLRLSCAASGFTFSKYFMFWVRQAPGKGLEWVSVISPSGGMTRYADSVKGRFTISRDNSKNTLYLQMNSLRAEDTAVYYCARVGYGGNEDYWGQGTLVTVSS
VL: DIQMTQSPSSVSASVGDRLTIICRASQDINRWLAWYQQTPGNAPKLLIHSATSLQSGVPSRFSGSGSGTDFTLTINSLQPEDFATYYCQQADSFPLTFGGGTKVEIK
Consider B20, for which the “fold difference in affinity vs parental” value worked out at 1.17 fold.

B21: XPA23 Fab, heavy chain S54N (Fab, V domains shown)
VH: EVQLLESGGGLVQPGGSLRLSCAASGFTFSKYFMFWVRQAPGKGLEWVSVISPNGGMTRYADSVKGRFTISRDNSKNTLYLQMNSLRAEDTAVYYCARVGYGGNSDYWGQGTLVTVSS
VL: DIQMTQSPSSVSASVGDRLTIICRASQDINRWLAWYQQTPGNAPKLLIHSATSLQSGVPSRFSGSGSGTDFTLTINSLQPEDFATYYCQQADSFPLTFGGGTKVEIK
With B21, the “fold difference in affinity vs parental” value was found to be 0.08 fold.
